The values that follow come from patent US20150344570A1 (published 2015).

B1: GpH7-A5/GpH7-B3 variant L234_20W/GpL16-k0 (antibody, human IgG1, kappa)
heavy 1: not shown
heavy 2: not shown
light: DIVMTQSPLSLPVTPGEPASISCQASESLVHSNRNTYLHWYLQKPGQSPQLLIYKVSNRFSGVPDRFSGSGSGTDFTLKISRVEAEDVGVYYCSQNTHVPPTFGQGTKVEIERTVAAPSVFIFPPSDEQLKSGTASVVCLLNNFYPREAKVQWKVDNALQSGNSQESVTEQDSKDSTYSLSSTLTLSKADYEKHKVYACEVTHQGLSSPVTKSFNRGEC
notes: also called He Ab L234_20W
B2: GpH7-A5/GpH7-B3 variant G236_03V/GpL16-k0 (antibody, human IgG1, kappa)
heavy 1: not shown
heavy 2: not shown
light: DIVMTQSPLSLPVTPGEPASISCQASESLVHSNRNTYLHWYLQKPGQSPQLLIYKVSNRFSGVPDRFSGSGSGTDFTLKISRVEAEDVGVYYCSQNTHVPPTFGQGTKVEIERTVAAPSVFIFPPSDEQLKSGTASVVCLLNNFYPREAKVQWKVDNALQSGNSQESVTEQDSKDSTYSLSSTLTLSKADYEKHKVYACEVTHQGLSSPVTKSFNRGEC
notes: also called He Ab G236_03V
B3: GpH7-A5/GpH7-B3 variant H268_19Q/GpL16-k0 (antibody, human IgG1, kappa)
heavy 1: not shown
heavy 2: not shown
light: DIVMTQSPLSLPVTPGEPASISCQASESLVHSNRNTYLHWYLQKPGQSPQLLIYKVSNRFSGVPDRFSGSGSGTDFTLKISRVEAEDVGVYYCSQNTHVPPTFGQGTKVEIERTVAAPSVFIFPPSDEQLKSGTASVVCLLNNFYPREAKVQWKVDNALQSGNSQESVTEQDSKDSTYSLSSTLTLSKADYEKHKVYACEVTHQGLSSPVTKSFNRGEC
notes: also called He Ab H268_19Q
B4: GpH7-A5/GpH7-B3 variant S267_09D/GpL16-k0 (antibody, human IgG1, kappa)
heavy 1: not shown
heavy 2: not shown
light: DIVMTQSPLSLPVTPGEPASISCQASESLVHSNRNTYLHWYLQKPGQSPQLLIYKVSNRFSGVPDRFSGSGSGTDFTLKISRVEAEDVGVYYCSQNTHVPPTFGQGTKVEIERTVAAPSVFIFPPSDEQLKSGTASVVCLLNNFYPREAKVQWKVDNALQSGNSQESVTEQDSKDSTYSLSSTLTLSKADYEKHKVYACEVTHQGLSSPVTKSFNRGEC
notes: also called He Ab S267_09D
B5: GpH7-A5/GpH7-B3 variant I336_06M/GpL16-k0 (antibody, human IgG1, kappa)
heavy 1: not shown
heavy 2: not shown
light: DIVMTQSPLSLPVTPGEPASISCQASESLVHSNRNTYLHWYLQKPGQSPQLLIYKVSNRFSGVPDRFSGSGSGTDFTLKISRVEAEDVGVYYCSQNTHVPPTFGQGTKVEIERTVAAPSVFIFPPSDEQLKSGTASVVCLLNNFYPREAKVQWKVDNALQSGNSQESVTEQDSKDSTYSLSSTLTLSKADYEKHKVYACEVTHQGLSSPVTKSFNRGEC
notes: also called He Ab I336_06M
B6: GpH7-A5/GpH7-B3 variant T335_18N/GpL16-k0 (antibody, human IgG1, kappa)
heavy 1: not shown
heavy 2: not shown
light: DIVMTQSPLSLPVTPGEPASISCQASESLVHSNRNTYLHWYLQKPGQSPQLLIYKVSNRFSGVPDRFSGSGSGTDFTLKISRVEAEDVGVYYCSQNTHVPPTFGQGTKVEIERTVAAPSVFIFPPSDEQLKSGTASVVCLLNNFYPREAKVQWKVDNALQSGNSQESVTEQDSKDSTYSLSSTLTLSKADYEKHKVYACEVTHQGLSSPVTKSFNRGEC
notes: also called He Ab T335_18N
B7: GpH7-A5/GpH7-B3 variant Y296_09D/GpL16-k0 (antibody, human IgG1, kappa)
heavy 1: not shown
heavy 2: not shown
light: DIVMTQSPLSLPVTPGEPASISCQASESLVHSNRNTYLHWYLQKPGQSPQLLIYKVSNRFSGVPDRFSGSGSGTDFTLKISRVEAEDVGVYYCSQNTHVPPTFGQGTKVEIERTVAAPSVFIFPPSDEQLKSGTASVVCLLNNFYPREAKVQWKVDNALQSGNSQESVTEQDSKDSTYSLSSTLTLSKADYEKHKVYACEVTHQGLSSPVTKSFNRGEC
notes: also called He Ab Y296_09D
B8: GpH7-A5/GpH7-B3 variant V266_08L/GpL16-k0 (antibody, human IgG1, kappa)
heavy 1: not shown
heavy 2: not shown
light: DIVMTQSPLSLPVTPGEPASISCQASESLVHSNRNTYLHWYLQKPGQSPQLLIYKVSNRFSGVPDRFSGSGSGTDFTLKISRVEAEDVGVYYCSQNTHVPPTFGQGTKVEIERTVAAPSVFIFPPSDEQLKSGTASVVCLLNNFYPREAKVQWKVDNALQSGNSQESVTEQDSKDSTYSLSSTLTLSKADYEKHKVYACEVTHQGLSSPVTKSFNRGEC
notes: also called He Ab V266_08L
B9: GpH7-A5/GpH7-B3 variant H268_02A/GpL16-k0 (antibody, human IgG1, kappa)
heavy 1: not shown
heavy 2: not shown
light: DIVMTQSPLSLPVTPGEPASISCQASESLVHSNRNTYLHWYLQKPGQSPQLLIYKVSNRFSGVPDRFSGSGSGTDFTLKISRVEAEDVGVYYCSQNTHVPPTFGQGTKVEIERTVAAPSVFIFPPSDEQLKSGTASVVCLLNNFYPREAKVQWKVDNALQSGNSQESVTEQDSKDSTYSLSSTLTLSKADYEKHKVYACEVTHQGLSSPVTKSFNRGEC
notes: also called He Ab H268_02A
B10: GpH7-A5/GpH7-B3 variant T335_20W/GpL16-k0 (antibody, human IgG1, kappa)
heavy 1: not shown
heavy 2: not shown
light: DIVMTQSPLSLPVTPGEPASISCQASESLVHSNRNTYLHWYLQKPGQSPQLLIYKVSNRFSGVPDRFSGSGSGTDFTLKISRVEAEDVGVYYCSQNTHVPPTFGQGTKVEIERTVAAPSVFIFPPSDEQLKSGTASVVCLLNNFYPREAKVQWKVDNALQSGNSQESVTEQDSKDSTYSLSSTLTLSKADYEKHKVYACEVTHQGLSSPVTKSFNRGEC
notes: also called He Ab T335_20W
B11: GpH7-A5/GpH7-B3 variant H268_18N/GpL16-k0 (antibody, human IgG1, kappa)
heavy 1: not shown
heavy 2: not shown
light: DIVMTQSPLSLPVTPGEPASISCQASESLVHSNRNTYLHWYLQKPGQSPQLLIYKVSNRFSGVPDRFSGSGSGTDFTLKISRVEAEDVGVYYCSQNTHVPPTFGQGTKVEIERTVAAPSVFIFPPSDEQLKSGTASVVCLLNNFYPREAKVQWKVDNALQSGNSQESVTEQDSKDSTYSLSSTLTLSKADYEKHKVYACEVTHQGLSSPVTKSFNRGEC
notes: also called He Ab H268_18N
B12: GpH7-A5/GpH7-B3 variant S337_08L/GpL16-k0 (antibody, human IgG1, kappa)
heavy 1: not shown
heavy 2: not shown
light: DIVMTQSPLSLPVTPGEPASISCQASESLVHSNRNTYLHWYLQKPGQSPQLLIYKVSNRFSGVPDRFSGSGSGTDFTLKISRVEAEDVGVYYCSQNTHVPPTFGQGTKVEIERTVAAPSVFIFPPSDEQLKSGTASVVCLLNNFYPREAKVQWKVDNALQSGNSQESVTEQDSKDSTYSLSSTLTLSKADYEKHKVYACEVTHQGLSSPVTKSFNRGEC
notes: also called He Ab S337_08L
B13: GpH7-A5/GpH7-B3 variant S267_10E/GpL16-k0 (antibody, human IgG1, kappa)
heavy 1: not shown
heavy 2: not shown
light: DIVMTQSPLSLPVTPGEPASISCQASESLVHSNRNTYLHWYLQKPGQSPQLLIYKVSNRFSGVPDRFSGSGSGTDFTLKISRVEAEDVGVYYCSQNTHVPPTFGQGTKVEIERTVAAPSVFIFPPSDEQLKSGTASVVCLLNNFYPREAKVQWKVDNALQSGNSQESVTEQDSKDSTYSLSSTLTLSKADYEKHKVYACEVTHQGLSSPVTKSFNRGEC
notes: also called He Ab S267_10E
B14: GpH7-A5/GpH7-B3 variant E333_09D/GpL16-k0 (antibody, human IgG1, kappa)
heavy 1: not shown
heavy 2: not shown
light: DIVMTQSPLSLPVTPGEPASISCQASESLVHSNRNTYLHWYLQKPGQSPQLLIYKVSNRFSGVPDRFSGSGSGTDFTLKISRVEAEDVGVYYCSQNTHVPPTFGQGTKVEIERTVAAPSVFIFPPSDEQLKSGTASVVCLLNNFYPREAKVQWKVDNALQSGNSQESVTEQDSKDSTYSLSSTLTLSKADYEKHKVYACEVTHQGLSSPVTKSFNRGEC
notes: also called He Ab E333_09D
B15: GpH7-A5/GpH7-B3 variant S239_08L/GpL16-k0 (antibody, human IgG1, kappa)
heavy 1: not shown
heavy 2: not shown
light: DIVMTQSPLSLPVTPGEPASISCQASESLVHSNRNTYLHWYLQKPGQSPQLLIYKVSNRFSGVPDRFSGSGSGTDFTLKISRVEAEDVGVYYCSQNTHVPPTFGQGTKVEIERTVAAPSVFIFPPSDEQLKSGTASVVCLLNNFYPREAKVQWKVDNALQSGNSQESVTEQDSKDSTYSLSSTLTLSKADYEKHKVYACEVTHQGLSSPVTKSFNRGEC
notes: also called He Ab S239_08L
B16: GpH7-A5/GpH7-B3 variant G236_07I/GpL16-k0 (antibody, human IgG1, kappa)
heavy 1: not shown
heavy 2: not shown
light: DIVMTQSPLSLPVTPGEPASISCQASESLVHSNRNTYLHWYLQKPGQSPQLLIYKVSNRFSGVPDRFSGSGSGTDFTLKISRVEAEDVGVYYCSQNTHVPPTFGQGTKVEIERTVAAPSVFIFPPSDEQLKSGTASVVCLLNNFYPREAKVQWKVDNALQSGNSQESVTEQDSKDSTYSLSSTLTLSKADYEKHKVYACEVTHQGLSSPVTKSFNRGEC
notes: also called He Ab G236_07I
B17: GpH7-A5/GpH7-B3 variant Y296_04F/GpL16-k0 (antibody, human IgG1, kappa)
heavy 1: not shown
heavy 2: not shown
light: DIVMTQSPLSLPVTPGEPASISCQASESLVHSNRNTYLHWYLQKPGQSPQLLIYKVSNRFSGVPDRFSGSGSGTDFTLKISRVEAEDVGVYYCSQNTHVPPTFGQGTKVEIERTVAAPSVFIFPPSDEQLKSGTASVVCLLNNFYPREAKVQWKVDNALQSGNSQESVTEQDSKDSTYSLSSTLTLSKADYEKHKVYACEVTHQGLSSPVTKSFNRGEC
notes: also called He Ab Y296_04F
B18: GpH7-A5/GpH7-B3 variant A330_16H/GpL16-k0 (antibody, human IgG1, kappa)
heavy 1: not shown
heavy 2: not shown
light: DIVMTQSPLSLPVTPGEPASISCQASESLVHSNRNTYLHWYLQKPGQSPQLLIYKVSNRFSGVPDRFSGSGSGTDFTLKISRVEAEDVGVYYCSQNTHVPPTFGQGTKVEIERTVAAPSVFIFPPSDEQLKSGTASVVCLLNNFYPREAKVQWKVDNALQSGNSQESVTEQDSKDSTYSLSSTLTLSKADYEKHKVYACEVTHQGLSSPVTKSFNRGEC
notes: also called He Ab A330_16H
B19: GpH7-A5/GpH7-B3 variant S239_10E/GpL16-k0 (antibody, human IgG1, kappa)
heavy 1: not shown
heavy 2: not shown
light: DIVMTQSPLSLPVTPGEPASISCQASESLVHSNRNTYLHWYLQKPGQSPQLLIYKVSNRFSGVPDRFSGSGSGTDFTLKISRVEAEDVGVYYCSQNTHVPPTFGQGTKVEIERTVAAPSVFIFPPSDEQLKSGTASVVCLLNNFYPREAKVQWKVDNALQSGNSQESVTEQDSKDSTYSLSSTLTLSKADYEKHKVYACEVTHQGLSSPVTKSFNRGEC
notes: also called He Ab S239_10E
B20: GpH7-A5/GpH7-B3 variant Y296_16H/GpL16-k0 (antibody, human IgG1, kappa)
heavy 1: not shown
heavy 2: not shown
light: DIVMTQSPLSLPVTPGEPASISCQASESLVHSNRNTYLHWYLQKPGQSPQLLIYKVSNRFSGVPDRFSGSGSGTDFTLKISRVEAEDVGVYYCSQNTHVPPTFGQGTKVEIERTVAAPSVFIFPPSDEQLKSGTASVVCLLNNFYPREAKVQWKVDNALQSGNSQESVTEQDSKDSTYSLSSTLTLSKADYEKHKVYACEVTHQGLSSPVTKSFNRGEC
notes: also called He Ab Y296_16H
B21: GpH7-A5/GpH7-B3 variant S337_07I/GpL16-k0 (antibody, human IgG1, kappa)
heavy 1: not shown
heavy 2: not shown
light: DIVMTQSPLSLPVTPGEPASISCQASESLVHSNRNTYLHWYLQKPGQSPQLLIYKVSNRFSGVPDRFSGSGSGTDFTLKISRVEAEDVGVYYCSQNTHVPPTFGQGTKVEIERTVAAPSVFIFPPSDEQLKSGTASVVCLLNNFYPREAKVQWKVDNALQSGNSQESVTEQDSKDSTYSLSSTLTLSKADYEKHKVYACEVTHQGLSSPVTKSFNRGEC
notes: also called He Ab S337_07I
B22: GpH7-A5/GpH7-B3 variant S337_20W/GpL16-k0 (antibody, human IgG1, kappa)
heavy 1: not shown
heavy 2: not shown
light: DIVMTQSPLSLPVTPGEPASISCQASESLVHSNRNTYLHWYLQKPGQSPQLLIYKVSNRFSGVPDRFSGSGSGTDFTLKISRVEAEDVGVYYCSQNTHVPPTFGQGTKVEIERTVAAPSVFIFPPSDEQLKSGTASVVCLLNNFYPREAKVQWKVDNALQSGNSQESVTEQDSKDSTYSLSSTLTLSKADYEKHKVYACEVTHQGLSSPVTKSFNRGEC
notes: also called He Ab S337_20W

Chain of FcγRIIa H (P12318 34-217): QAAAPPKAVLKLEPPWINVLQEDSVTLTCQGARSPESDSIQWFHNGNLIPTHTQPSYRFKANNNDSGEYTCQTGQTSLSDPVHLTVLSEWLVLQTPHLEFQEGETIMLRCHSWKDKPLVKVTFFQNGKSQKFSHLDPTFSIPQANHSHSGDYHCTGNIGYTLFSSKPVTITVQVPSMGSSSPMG

The test concerns the target FcγRIIa H (human, UniProt P12318 34-217). Description: SPR Biacore, captured antibody, FcγR analyte; vs GpH7-A5/GpH7-B3/GpL16-k0 = 100. A general note: SPR reads the build-up and loss of mass on a sensor chip optically.
B1: the He/Con_2aH was 114 % of control. With B2 the figure was 119 % of control; with B3, 102 % of control; with B4, 105 % of control. To B5 belongs 106 % of control; to B6, 103 % of control.

With B7, the He/Con_2aH is 104 % of control. With B8 the figure was 104 % of control. To B9 belongs 114 % of control. To B10 belongs 105 % of control; to B11, 112 % of control. Take B12: the He/Con_2aH was 100 % of control. To B13 belongs 102 % of control. To B14 belongs 103 % of control; to B15, 105 % of control; to B16, 115 % of control. Turning to B17, the He/Con_2aH is 100 % of control. To B18 belongs 101 % of control. With B19 the figure was 112 % of control; with B20, 104 % of control; with B21, 101 % of control.

With B22, the He/Con_2aH is 102 % of control.
